This series deals with the molecule itself. Kind of series: SEC-MALS.

B1: BOR1 from Arabidopsis thaliana (AtBOR1), purified in DDM, GFP-8His tag cleaved (natural protein)
chain: not shown
B1: the “stoichiometry N” value amounted to 2.

Values taken from publication PMC7366829 (Acta biomaterialia, 2020).
